According to paper PMC2756776 (Arteriosclerosis, thrombosis, and vascular biology, 2009):

Molecular target: Factor XI (FXI), plasma-derived (human)
Experiment: ELISA

Kd: 61 nM
B1: Soluble recombinant ApoER2’ (a splice variant of ApoER2 lacking LDL-binding domains 4, 5 and 6) (receptor)
chain: not shown
